Earlier results, collected in article PMC7349879.
Each block holds one substance with its values, some of them ahead of it.

Tests used:
EpCAM (Homo sapiens) = EpCAM (Homo sapiens) (UniProt P16422)
[1] = molecular target: EpCAM cis-dimer (Homo sapiens) (UniProt P16422)
β-catenin (Homo sapiens) = β-catenin (Homo sapiens) (UniProt P35222)
Chain of UniProt P35222 (P35222 2-781): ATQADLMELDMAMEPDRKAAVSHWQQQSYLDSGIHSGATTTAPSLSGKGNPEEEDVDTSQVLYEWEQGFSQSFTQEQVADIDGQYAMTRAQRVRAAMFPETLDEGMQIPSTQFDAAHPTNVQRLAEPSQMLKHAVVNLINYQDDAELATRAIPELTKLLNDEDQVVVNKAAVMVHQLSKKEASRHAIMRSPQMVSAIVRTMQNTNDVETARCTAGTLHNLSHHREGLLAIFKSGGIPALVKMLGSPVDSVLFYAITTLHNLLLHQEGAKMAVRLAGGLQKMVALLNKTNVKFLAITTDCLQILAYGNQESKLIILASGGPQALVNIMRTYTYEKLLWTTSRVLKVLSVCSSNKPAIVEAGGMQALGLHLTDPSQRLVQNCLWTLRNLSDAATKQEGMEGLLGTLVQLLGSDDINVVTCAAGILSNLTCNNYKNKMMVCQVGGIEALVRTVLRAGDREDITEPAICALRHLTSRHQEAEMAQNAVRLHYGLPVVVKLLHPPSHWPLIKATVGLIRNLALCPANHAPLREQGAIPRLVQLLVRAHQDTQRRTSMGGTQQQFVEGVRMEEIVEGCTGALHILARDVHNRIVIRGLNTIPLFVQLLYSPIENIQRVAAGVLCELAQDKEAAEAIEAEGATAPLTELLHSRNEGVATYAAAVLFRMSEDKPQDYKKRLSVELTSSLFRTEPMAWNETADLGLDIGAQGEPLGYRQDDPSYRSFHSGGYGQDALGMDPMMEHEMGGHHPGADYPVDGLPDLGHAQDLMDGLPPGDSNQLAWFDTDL

Kd (EpCAM (Homo sapiens)): < 0.01 µM
Substance: EpCAM (from UniProt P16422)

Kd [1]: 10 µM
Substance: EpCAM cis-dimer (from UniProt P16422)

Kd (β-catenin (Homo sapiens)): 1.08 µM
Substance: FHL2 (from UniProt Q14192)
